Values quoted from earlier work, collected in patent publication US20190351003A1, “METHODS FOR INHIBITING NONALCOHOLIC STEATOHEPATITIS, NONALCOHOLIC FATTY LIVER DISEASE, AND/OR DE NOVO LIPOGENESIS” (The Regents of the University of California, priority 2017, published 2019).
Where no end group is shown, it is not given here. The star is where a group is joined. CH2F = FC*

Biological target: T1, caspase-2 (Homo sapiens, UniProt P42575)
T1 sequence (P42575 1-452): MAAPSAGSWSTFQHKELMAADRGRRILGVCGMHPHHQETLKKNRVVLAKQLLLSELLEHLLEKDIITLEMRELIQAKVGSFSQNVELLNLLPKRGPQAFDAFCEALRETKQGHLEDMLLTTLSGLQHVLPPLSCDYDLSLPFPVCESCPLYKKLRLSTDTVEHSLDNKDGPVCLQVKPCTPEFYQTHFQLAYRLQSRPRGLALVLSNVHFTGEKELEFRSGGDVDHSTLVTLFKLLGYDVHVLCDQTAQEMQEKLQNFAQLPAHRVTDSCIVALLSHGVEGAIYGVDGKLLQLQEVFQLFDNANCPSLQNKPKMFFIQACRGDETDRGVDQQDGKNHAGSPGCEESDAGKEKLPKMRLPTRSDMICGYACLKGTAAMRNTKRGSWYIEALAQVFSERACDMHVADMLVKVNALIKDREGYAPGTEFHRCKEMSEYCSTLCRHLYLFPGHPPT
Details: cell-permeable peptide; fluoromethylketone derivative; cited from earlier work

VDVAD (VDVAD-CH2F) [available as a fluoromethylketone derivative]
activity of caspase-2: irreversibly inhibits
